What is called Kd is the constant that tells how readily two partners part at equilibrium. Read a high Kd as a looser complex.

We go through one molecule from article PMC9072312 (2022).

Assay in all cases: MST
In assay [1] the target is T1, PVR-Ig (extracellular portion of human PVR fused to the Fc domain of human IgG1) (human, UniProt P15151 21-343).
T1 chain: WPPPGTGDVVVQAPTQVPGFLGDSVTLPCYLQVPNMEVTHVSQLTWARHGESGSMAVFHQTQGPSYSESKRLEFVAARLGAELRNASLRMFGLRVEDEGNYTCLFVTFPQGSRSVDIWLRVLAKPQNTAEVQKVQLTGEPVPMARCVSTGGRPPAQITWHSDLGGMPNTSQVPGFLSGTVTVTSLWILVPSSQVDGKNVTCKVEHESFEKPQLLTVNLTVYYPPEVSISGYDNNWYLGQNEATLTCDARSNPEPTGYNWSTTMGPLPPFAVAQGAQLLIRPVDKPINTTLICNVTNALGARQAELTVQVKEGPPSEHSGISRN

Assay [2] concerns the target T2, NT-Als6-Ig (N′-terminal domain of C. albicans Als6 fused to the Fc domain of human IgG1) (C. albicans, UniProt Q5A2Z7 19-329).
T2 chain: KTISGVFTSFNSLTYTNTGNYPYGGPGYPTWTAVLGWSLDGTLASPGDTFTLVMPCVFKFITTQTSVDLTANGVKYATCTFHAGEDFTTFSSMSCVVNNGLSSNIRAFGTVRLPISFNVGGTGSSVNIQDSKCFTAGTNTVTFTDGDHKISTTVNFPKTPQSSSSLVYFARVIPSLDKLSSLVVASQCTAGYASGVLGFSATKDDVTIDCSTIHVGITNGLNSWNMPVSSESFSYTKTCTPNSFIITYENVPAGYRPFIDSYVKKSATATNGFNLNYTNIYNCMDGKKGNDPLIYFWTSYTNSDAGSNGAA

In assay [3] the target is NT-Als9-2-Ig (N′-terminal domain of C. albicans Als9, allele Als9-2, fused to the Fc domain of human IgG1) (C. albicans).
In assay [4] the target is T3, NT-Als7-Ig (N′-terminal domain of C. albicans Als7 fused to the Fc domain of human IgG1) (C. albicans, UniProt Q5A312 19-329).
T3 chain: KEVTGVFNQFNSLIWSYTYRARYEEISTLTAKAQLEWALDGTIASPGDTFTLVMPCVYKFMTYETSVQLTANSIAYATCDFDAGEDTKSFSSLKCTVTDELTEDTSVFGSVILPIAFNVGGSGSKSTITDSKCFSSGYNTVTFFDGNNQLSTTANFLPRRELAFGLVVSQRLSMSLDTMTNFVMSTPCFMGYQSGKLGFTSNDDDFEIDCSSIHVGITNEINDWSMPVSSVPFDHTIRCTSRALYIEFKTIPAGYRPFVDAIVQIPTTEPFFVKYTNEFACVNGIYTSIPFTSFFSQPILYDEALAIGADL

B1: TIGIT-Ig (extracellular ligand-binding domain of human TIGIT fused to the Fc domain of human IgG1) (Fc fusion)
chain: MMTGTIETTGNISAEKGGSIILQCHLSSTTAQVTQVNWEQQDQLLAICNADLGWHISPSFKDRVAPGPGLGLTLQSLTVNDTGEYFCIYHTYPDGTYTGRIFLEVLESSVAEHGARFQIP
modifications: fluorescently labeled with the Monolith NT Protein Labeling Kit RED-NHS
In the case of B1, the Kd came to 49 nM in assay [1], 6 nM in assay [2], 455 nM in assay [3] and 42 nM in assay [4].
